{"source": "paper PMC8027542", "key": {"[1]": {"biological_target": "CD14 (UniProt P08571)", "sequence (P08571 20-345)": "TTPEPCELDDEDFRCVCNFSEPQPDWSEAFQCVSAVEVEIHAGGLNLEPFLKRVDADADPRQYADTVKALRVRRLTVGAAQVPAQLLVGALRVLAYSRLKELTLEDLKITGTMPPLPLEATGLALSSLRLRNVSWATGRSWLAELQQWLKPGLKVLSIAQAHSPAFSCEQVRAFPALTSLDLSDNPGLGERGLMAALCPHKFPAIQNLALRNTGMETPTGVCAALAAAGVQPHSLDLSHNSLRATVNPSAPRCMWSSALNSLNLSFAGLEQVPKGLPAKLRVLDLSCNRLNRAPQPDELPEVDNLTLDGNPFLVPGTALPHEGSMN", "experiment": "SPR; TLR2 or CD14 (ligands) immobilised on a CM5 chip; different SIC concentrations as analyte; 1:1 Langmuir fit"}, "[2]": {"biological_target": "TLR2 (UniProt O60603)", "sequence (O60603 21-784)": "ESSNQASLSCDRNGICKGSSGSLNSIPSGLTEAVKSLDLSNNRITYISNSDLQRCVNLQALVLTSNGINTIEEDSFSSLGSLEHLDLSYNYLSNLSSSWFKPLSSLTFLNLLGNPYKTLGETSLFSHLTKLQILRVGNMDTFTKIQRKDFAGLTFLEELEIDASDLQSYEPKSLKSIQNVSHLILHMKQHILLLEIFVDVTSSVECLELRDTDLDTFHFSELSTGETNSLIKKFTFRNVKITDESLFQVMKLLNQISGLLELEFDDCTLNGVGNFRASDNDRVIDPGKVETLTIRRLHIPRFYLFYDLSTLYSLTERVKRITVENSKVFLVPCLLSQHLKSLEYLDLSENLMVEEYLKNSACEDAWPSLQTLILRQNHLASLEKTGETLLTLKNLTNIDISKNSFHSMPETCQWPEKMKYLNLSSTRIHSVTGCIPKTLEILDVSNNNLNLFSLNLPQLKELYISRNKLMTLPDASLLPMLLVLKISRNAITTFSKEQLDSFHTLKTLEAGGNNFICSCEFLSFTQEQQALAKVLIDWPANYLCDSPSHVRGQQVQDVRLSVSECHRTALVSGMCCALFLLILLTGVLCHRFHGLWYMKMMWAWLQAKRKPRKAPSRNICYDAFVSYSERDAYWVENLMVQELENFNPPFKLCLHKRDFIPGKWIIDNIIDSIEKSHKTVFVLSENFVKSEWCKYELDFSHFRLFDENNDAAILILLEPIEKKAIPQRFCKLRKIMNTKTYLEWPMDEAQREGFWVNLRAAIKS", "experiment": "SPR; TLR2 or CD14 (ligands) immobilised on a CM5 chip; different SIC concentrations as analyte; 1:1 Langmuir fit"}}, "note": "pKd: −log10 of the molar value.", "data": [{"substance": "Streptococcal inhibitor of complement (SIC) from S. pyogenes M1 strain AP1 (natural protein)", "values": [{"measurement": "pKd", "setting": "[1]", "value": 5.60}, {"measurement": "pKd", "setting": "[2]", "value": 4.89}]}]}
